Data reported in the RNAGym collection of RNA variant scans (doi:10.7554/elife.80360).

B1: HDV Ribozyme (parent)
chain: GGCCGGCAUGGUCCCAGCCUCCUCGCUGGCGCCGGCUGGGCAACAUUCCGAGGGGACCGUCCCCUCGGUAAUGGCGAAUGGGACCCA

Variants of: B1
Experiment: self-cleavage, relative activity (ratio to wild type); higher = more cleavage; co-transcriptional

Variant	self-cleavage
GGCCGGCAUGGUCCCAGCCUCCUCGCUGGCGCCGGCUGGGCAACAUUCCGAGGGGACCUUUCCCUCGGUAAUGGCGAAUGGGACCCA [G59U C61U]	0.997
GGCCGGCAUGGUCCCAGCCUCCUCGCUGGCGCCGGCUGGGCCACAUUCCGAGGGGACCGUCCCCUGGGUAAUGGCGAAUGGGACCCA [A42C C66G]	0.243
GGCCGGCAUGGUCCCAGCCUCCUCGCUGGCGCCGGAUGGGCAACAUUCCGAGGCGACCGUCCCCUCGGUAAUGGCGAAUGGGACCCA [C36A G54C]	0.241
GGCCGGUAUGGUCCCAGCCUCCUCGCUGGCGCCGGCUGGGCAACACUCCGAGGGGACCGUCCCCUCGGUAAUGGCGAAUGGGACCCA [C7U U46C]	0.447
GGCCGGCAUGGUCCCAGCCUCCUCGCUGGCGCCCGCUGGGCAACAUUCCGAGGGGACCGCCCCCUCGGUAAUGGCGAAUGGGACCCA [G34C U60C]	0.244
GGCCAGCAUGGUCCCAGCCUCCUCGCUGGCGCCGGCUGGGCAACAUUCCGAGGGGACCGUCCCCUCGGUAAUGACGAAUGGGACCCA [G5A G74A]	0.0326
GGCCGGCAUGGUCCCAGACUCCUCGCUGGCGCCGGCUGGGCAACAUUCCGAGGGGACCGUCCCCUCGGUAAUGGCGAAUGAGACCCA [C18A G81A]	0.0755
GGCCGGCAUGGUCCCAGCCUCCUCGCUGGGGCCGGCUGGGCAACAUGCCGAGGGGACCGUCCCCUCGGUAAUGGCGAAUGGGACCCA [C30G U47G]	0.0678
GGCCGGCAUGGUCCCAGCCUCCUCGCUGGCGCCGGCUGGGCAACAUUCCCAGGGGACCGUGCCCUCGGUAAUGGCGAAUGGGACCCA [G50C C61G]	0.578
GGCCGGCAUGGUCCCAGCCUCCUCGCUGUCGCCGGCUGGGCAACAUUCCGAGGGGACCGUCCCCUCGGUUAUGGCGAAUGGGACCCA [G29U A70U]	0.0923
GGCCGGCAUGGUCCCAGCCUCCUCGCUCGCGCCGGCUGGGCAACAUUCCGAGAGGACCGUCCCCUCGGUAAUGGCGAAUGGGACCCA [G28C G53A]	0.0941
GGCCGGCAUGGUCCCAGCCUCCUCGCUGGCGCCGGCUGGGCAACAUUCCGCGGGGACCGUCCCCUCGGUAAUGGCGCAUGGGACCCA [A51C A77C]	0.266
GGCCGGCAUGGACCCAGCCUCCUCGCUGGCGCCGGCUGGGCAACAUUCCGAGGGGACCGUCCCCUUGGUAAUGGCGAAUGGGACCCA [U12A C66U]	0.317
GGUCGGCAUGGUCCCAGCCUCCUCGCUGGCGCCGGCUGGGCAACAUUCCGAGGGGACGGUCCCCUCGGUAAUGGCGAAUGGGACCCA [C3U C58G]	0.767
GGCCGGUAUGGUCCCAGCUUCCUCGCUGGCGCCGGCUGGGCAACAUUCCGAGGGGACCGUCCCCUCGGUAAUGGCGAAUGGGACCCA [C7U C19U]	0.0519
GGCCGGCAUGGUCCCAGCCUCCUCGCUGGCGCCGGCUGGGCAACAUUCCGAGGGAACCGUCCCCUCGGUAAUGGCGAUUGGGACCCA [G55A A78U]	0.201

Variant	self-cleavage
GGCCGGCAUGGUCCCAGCCUCCUCGCUGGCGCCAGCUUGGCAACAUUCCGAGGGGACCGUCCCCUCGGUAAUGGCGAAUGGGACCCA [G34A G38U]	0.138
GGCCGGCAUGGUCCCAGCCUCCCCGCUGGCGCCGGCUGGGCAACAUUCCGAGGGGACAGUCCCCUCGGUAAUGGCGAAUGGGACCCA [U23C C58A]	1.18
GGGCGGCAUGGUCCCAGCCUCCUCGCUGGCGCCGGCUGGGCAACAUUCCGAGGGGACCGUCCCCUCGGUAAUGGCGAAGGGGACCCA [C3G U79G]	0.262
GGCCGGCAAGGUCCCAGCCUCCUCGCUGGCGCCGGCUGGGCAACAUUCCGAGGGGACCGUCCCUUCGGUAAUGGCGAAUGGGACCCA [U9A C64U]	1.04
GGCCGGCAUGGUCCCAGCCUCCUCGCUGGCGCCGGCUGGGCAACAUUCCGAGGGGAUCGUCCCCUCGGUAAUGGCGAAUGGGACCCU [C57U A87U]	1.01
GGCCCGCAUGGUCCCAGCCUCCUCGCUGGCGCCGGCUGGGCAAUAUUCCGAGGGGACCGUCCCCUCGGUAAUGGCGAAUGGGACCCA [G5C C44U]	0.0504
GGCCGGCAUGGUCCCAGCCUCCUCGCUGGCGCCGGCUGGGCGACAUUCCGAGGGGACCGUCCCCUCGGUAAUGCCGAAUGGGACCCA [A42G G74C]	0.095
GGCCGGCAUGGUCCCAGCCUCCUCGCUGGCGCCGGCAGGGCAACAUUCCGAGGGGACCGUCCCCUCGGUAAUGGCGAGUGGGACCCA [U37A A78G]	0.131
GGCCGGCAUGGUCCCAGCCUCAUCGCUGGCGCCGGCUGGGCAAAAUUCCGAGGGGACCGUCCCCUCGGUAAUGGCGAAUGGGACCCA [C22A C44A]	0.151
GGCCGGCAUGGUCCCAGCCUCCUCGCUGGCGCCGGCUGGGCAACAUUCCUAGGCGACCGUCCCCUCGGUAAUGGCGAAUGGGACCCA [G50U G54C]	0.768
GGCCGGCAUGGUCCCAGCCUCCUCGCUGGCGCCGGCUGGGCAACAGUCCGAGGGGACCGUCUCCUCGGUAAUGGCGAAUGGGACCCA [U46G C62U]	0.811
GGCCGGCAUGAUCCCAGCCUCCUCGCUGGCGCCGGCUGGGCUACAUUCCGAGGGGACCGUCCCCUCGGUAAUGGCGAAUGGGACCCA [G11A A42U]	0.158
GGCCGGCAUGGUCCCACCCUCCUCGCUGGCGCCGGCUGGGCAACAUUCCGAGCGGACCGUCCCCUCGGUAAUGGCGAAUGGGACCCA [G17C G53C]	0.178
GGCCGGCAUGGUCCCAGCCUCCUCGCUGGCGCCGGCUGGGCAACAAUCCGAGGGGUCCGUCCCCUCGGUAAUGGCGAAUGGGACCCA [U46A A56U]	0.704
GGCCGGCAUGGUCCCAGCCUCCUCGCUGGCGCCGGCUGGGCAACAUUCCGAGAGGACCGUCCCCUCGGUAAUGGCGAAUGGGGCCCA [G53A A83G]	0.802
GGCCGGCAUGGUCCCAGCCUCCUCGCUGGCGCGGUCUGGGCAACAUUCCGAGGGGACCGUCCCCUCGGUAAUGGCGAAUGGGACCCA [C33G G35U]	0.142
